The values that follow come from publication PMC4551920.

Like-named read-outs stand apart in the source and are kept apart here.

The target of series [1] is T1, CUGBP1-Flag (UniProt Q92879 1-486). Briefly: EMSA. Background: In EMSA bound probe runs differently from free probe, usually more slowly.
Series [2] concerns the target T1, CUGBP1-Flag. Kind of series: EMSA. This is another data set of the same source.

T1 sequence (Q92879 whole entry): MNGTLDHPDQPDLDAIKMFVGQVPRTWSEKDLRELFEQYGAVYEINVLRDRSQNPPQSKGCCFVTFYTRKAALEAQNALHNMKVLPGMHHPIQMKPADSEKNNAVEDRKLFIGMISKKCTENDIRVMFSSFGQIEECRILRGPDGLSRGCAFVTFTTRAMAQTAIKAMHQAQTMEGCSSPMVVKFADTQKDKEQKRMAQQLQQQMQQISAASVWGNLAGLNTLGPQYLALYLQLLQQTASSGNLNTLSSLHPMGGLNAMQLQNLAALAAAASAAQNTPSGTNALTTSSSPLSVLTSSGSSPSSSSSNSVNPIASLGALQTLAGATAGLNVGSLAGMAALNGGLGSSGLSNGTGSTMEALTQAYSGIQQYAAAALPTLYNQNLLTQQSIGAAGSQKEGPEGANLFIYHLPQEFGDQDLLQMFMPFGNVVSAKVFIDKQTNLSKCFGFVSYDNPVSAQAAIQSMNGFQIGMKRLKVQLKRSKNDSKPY

Regarding UGGAGUGUGACAAUGGUGUUUGA (ssRNA) [miR-122 23-nt (3'-a)], in series [1], the binding result is listed as “binds”.
With UAGCAGCACGUAAAUAUUGGCG (ssRNA) [miR-16], in series [2], the binding result is “no binding”.
Turning to UGGAGUGUGACAAUGGCCCCCC (ssRNA) [miR-122 17-22C], the binding result in series [1] is “no binding”.
UGGAGUGUGACAAUGGUGUUUGAAAAA (ssRNA) [miR-122 27-nt (3'-a5)]: the binding result in series [1] was “binds”.
